T1: Papain (a Cathepsin B surrogate) (Carica papaya, UniProt P00784)
T1 sequence (P00784 134-345): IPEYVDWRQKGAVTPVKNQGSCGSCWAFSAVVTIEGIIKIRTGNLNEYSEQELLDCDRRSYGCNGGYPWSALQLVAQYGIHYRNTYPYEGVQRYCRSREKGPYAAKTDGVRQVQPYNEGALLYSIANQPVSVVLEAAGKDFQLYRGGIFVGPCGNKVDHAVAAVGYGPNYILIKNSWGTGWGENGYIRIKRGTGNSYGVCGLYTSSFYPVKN


Key:
[1] = Comparative repeat-dose rat toxicity study; type: in vivo; conditions: DAR 8 on a Trastuzumab backbone, 20 or 60 mg/kg
[2] = Control incubation in buffer without S9; conditions: 5 μM ADC, pH 5.0
Procedure: Samples were analysed using LC/QE-orbitrap-MS.
The control incubations include each ADC without the addition of S9.

[3] = target: T1, Papain (a Cathepsin B surrogate); conditions: reaction with papain, 24 hours and 96 hours
[4] = tested on: MDA-MB-468, PC3, DU145 and OVMZ-6 cells; experiment: Binding to cells after CDCP1 cleavage; conditions: mAbs binding membrane proximal or distal regions of CDCP1
Excerpt: FIG. 45E is an image of polyacrylamide gel binding assay. […] The sequences of the light chain variable region, heavy chain variable region, and CDRs (SEQ ID NOs: 15-22) of “Sequence 2” can be found in Table 2B.

| Molecule | changes in hemopoietic system (red cell parameters) [1] | tolerability ([1]; IV once every 3 weeks, two doses) | LC/MS peak area of released payload (Exatecan; 4NH2-Exatecan; DXd; DM1, per ADC) ([2]; Buffer without S9, 180 min) | LC/MS peak area of released payload (Exatecan; 4NH2-Exatecan; DXd; DM1, per ADC) ([2]; Buffer without S9, 360 min) | LC/MS peak area of released payload (Exatecan; 4NH2-Exatecan; DXd; DM1, per ADC) ([2]; Buffer without S9, 1440 min) | rate of cleavage [3] | binding to cells with cleaved CDCP1 [4] |
| --- | --- | --- | --- | --- | --- | --- | --- |
| CC[C@@]1(O)C(=O)OCc2c1cc1n(c2=O)Cc2c-1nc1cc(F)c(C)c3c1c2[C@@H](NC(=O)[C@H](C)NC(=O)[C@@H](NC(=O)CCOCCOCCOCCOCCOCCOCCOCCOCCNC(=O)CCN1C(=O)C=CC1=O)C(C)C)CC3 [Compound 30] | negligible effects | well tolerated | 26,179 | 51,267 | 59,452 | slower rate compared to other TOPO1 inhibitors having Cathepsin B cleavage mechanisms |  |
| mAbs-CDCPA1 Sequence 1: "mAbs-CDCPA1 Sequence 1 (proximal region)" antibody binding the membrane proximal region of CDCP1 (antibody, V domains shown) VH: EVQLLESGGGLVQPGGSLRLSCAASGFTFSNYAMNWVRQAPGKGLEWVSAISGGGGSTYYADSVKGRFTISRDNSKNTLYLQMNSLRAEDTAVYYCAKESITMVRGVMDYYGMDVWGQGTTVTVSS VL: DIQLTQSPSFLSASVGDRVTITCRASQGISSYLAWYQQKPGKAPKLLIYAASTLQGGVPSRFSGSGSGTEFTLTISSLQPEDFATYYCQHLNRFPRTFGQGTKVEIK |  |  |  |  |  |  | did not show significant difference in binding to CDCP1+ cells |

Reference: patent US20260263614A1, “ANTIBODY DRUG CONJUGATES THAT BIND CDCP1 AND USES THEREOF” (Pheon Therapeutics Ltd, priority 2022, published 2026)
